Data published in patent US7122382 (RIKEN, dated 2006).
Read-outs that look alike come from different tables or passages of the source.

B1: Fos (other, UniProt P01101 1-380, looked up)
chain: MMFSGFNADYEASSSRCSSASPAGDSLSYYHSPADSFSSMGSPVNTQDFCADLSVSSANFIPTVTAISTSPDLQWLVQPTLVSSVAPSQTRAPHPYGLPTQSAGAYARAGMVKTVSGGRAQSIGRRGKVEQLSPEEEEKRRIRRERNKMAAAKCRNRRRELTDTLQAETDQLEDEKSALQTEIANLLKEKEKLEFILAAHRPACKIPDDLGFPEEMSVASLDLTGGLPEASTPESEEAFTLPLLNDPEPKPSLEPVKSISNVELKAEPFDDFLFPASSRPSGSETSRSVPDVDLSGSFYAADWEPLHSNSLGMGPMVTELEPLCTPVVTCTPGCTTYTSSFVFTYPEADSFPSCAAAHRKGSSSNEPSSDSLSSPTLLAL
modifications: 35S-methionine label or biotinylated lysine, by its role in the assay
notes: Crude translation mix, not purified
B2: Jun (other, UniProt P05627 1-334, looked up)
chain: MTAKMETTFYDDALNASFLQSESGAYGYSNPKILKQSMTLNLADPVGSLKPHLRAKNSDLLTSPDVGLLKLASPELERLIIQSSNGHITTTPTPTQFLCPKNVTDEQEGFAEGFVRALAELHSQNTLPSVTSAAQPVSGAGMVAPAVASVAGAGGGGGYSASLHSEPPVYANLSNFNPGALSSGGGAPSYGAAGLAFPSQPQQQQQPPQPPHHLPQQIPVQHPRLQALKEEPQTVPEMPGETPPLSPIDMESQERIKAERKRMRNRIAASKCRKRKLERIARLEEKVKTLKAQNSELASTANMLREQVAQLKQKVMNHVNSGCQLMLTQQLQTF
modifications: 35S-methionine label or biotinylated lysine, by its role in the assay
B3: p53 (other, UniProt P02340 1-390, looked up)
chain: MTAMEESQSDISLELPLSQETFSGLWKLLPPEDILPSPHCMDDLLLPQDVEEFFEGPSEALRVSGAPAAQDPVTETPGPVAPAPATPWPLSSFVPSQKTYQGNYGFHLGFLQSGTAKSVMCTYSPPLNKLFCQLAKTCPVQLWVSATPPAGSRVRAMAIYKKSQHMTEVVRRCPHHERCSDGDGLAPPQHLIRVEGNLYPEYLEDRQTFRHSVVVPYEPPEAGSEYTTIHYKYMCNSSCMGGMNRRPILTIITLEDSSGNLLGRDSFEVRVCACPGRDRRTEEENFRKKEVLCPELPPGSAKRALPTCTSASPPQKKKPLDGEYFTLKIRGRKRFEMFRELNEALELKDAHATEESGDSRAHSSYLKTKKGQSTSRHKKTMVKKVGPDSD
modifications: 35S-methionine label or biotinylated lysine, by its role in the assay

Legend:
p53 = target: B3; test: biotinylated row protein on streptavidin beads, 35S column protein counted
luciferase = luciferase (UniProt P08659 1-550 = luciferase, 35S-methionine label or biotinylated lysine, by its role in the assay); test: as above
Sequence of luciferase (P08659 whole entry): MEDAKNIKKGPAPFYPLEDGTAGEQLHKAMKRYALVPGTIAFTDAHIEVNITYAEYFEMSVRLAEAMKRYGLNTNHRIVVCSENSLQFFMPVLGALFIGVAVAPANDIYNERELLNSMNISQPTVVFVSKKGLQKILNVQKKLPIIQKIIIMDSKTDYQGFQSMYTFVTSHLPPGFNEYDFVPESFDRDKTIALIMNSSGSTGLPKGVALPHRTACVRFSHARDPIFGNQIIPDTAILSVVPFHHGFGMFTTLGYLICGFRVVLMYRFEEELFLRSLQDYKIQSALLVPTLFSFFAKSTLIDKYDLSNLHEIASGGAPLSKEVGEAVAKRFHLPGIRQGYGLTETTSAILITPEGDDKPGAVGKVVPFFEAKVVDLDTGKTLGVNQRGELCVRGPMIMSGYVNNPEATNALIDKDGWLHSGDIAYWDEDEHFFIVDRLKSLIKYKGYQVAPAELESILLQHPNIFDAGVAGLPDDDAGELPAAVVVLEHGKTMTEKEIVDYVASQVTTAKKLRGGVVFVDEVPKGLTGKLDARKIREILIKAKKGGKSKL

[1] = target: the molecule itself; test: as above
SV40 large T = SV40 large T (SV40, UniProt P03070 1-708); test: as above
Jun = target: B2; test: as above
Fos = target: B1; test: as above
2-1G = 2-1G (mouse); test: single proteins, rows taken as 35S-labelled and columns as biotinylated, streptavidin beads
2-1E = 2-1E (mouse); test: as above
[2] = target: T1, Bpx protein (nucleosome assembly protein homologue) (2-1H) (mouse, UniProt P51860 1-460, limits assumed, 35S-methionine label or biotinylated lysine, by its role in the assay); test: as above
T1 construct: also called NAP 1-like protein L2
T1 sequence (looked up): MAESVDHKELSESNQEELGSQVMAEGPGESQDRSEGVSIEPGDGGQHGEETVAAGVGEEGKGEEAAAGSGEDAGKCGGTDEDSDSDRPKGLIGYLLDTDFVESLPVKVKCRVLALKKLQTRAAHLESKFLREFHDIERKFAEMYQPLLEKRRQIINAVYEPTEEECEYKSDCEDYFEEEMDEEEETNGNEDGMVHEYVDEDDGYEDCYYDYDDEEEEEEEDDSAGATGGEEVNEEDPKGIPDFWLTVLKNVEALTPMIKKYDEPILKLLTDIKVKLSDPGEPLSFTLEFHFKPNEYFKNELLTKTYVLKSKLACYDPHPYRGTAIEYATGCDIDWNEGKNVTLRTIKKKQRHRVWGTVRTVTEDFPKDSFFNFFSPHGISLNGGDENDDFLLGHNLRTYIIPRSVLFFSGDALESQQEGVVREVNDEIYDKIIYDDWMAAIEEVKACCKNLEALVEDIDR

2-1F = 2-1F (mouse); test: as above
[3] = target: DnaJ-like protein (Hsj2) (2-10E) (mouse, UniProt P63037 1-397, 35S-methionine label or biotinylated lysine, by its role in the assay); test: as above
2-10H = 2-10H (mouse); test: as above
[4] = target: the molecule itself; test: as above
2-10G = 2-10G (mouse); test: as above
1-9F = 1-9F (mouse); test: as above
1-9H = 1-9H (mouse); test: as above
[5] = target: the molecule itself; test: as above; remark: listed apart in the source
1-9G = 1-9G (mouse); test: as above

B1
RI (c.p.m.) (p53): 169 c.p.m. | RI (c.p.m.) (luciferase): 172 c.p.m. | RI (c.p.m.) [1]: 177 c.p.m. | RI (c.p.m.) (SV40 large T): 156 c.p.m. | RI (c.p.m.) (Jun): 675 c.p.m.

B2
RI (c.p.m.) (p53): 187 c.p.m. | RI (c.p.m.) (luciferase): 131 c.p.m. | RI (c.p.m.) [1]: 204 c.p.m. | RI (c.p.m.) (SV40 large T): 176 c.p.m. | RI (c.p.m.) (Fos): 707 c.p.m.

B3
RI (c.p.m.) (luciferase): 154 c.p.m. | RI (c.p.m.) (Jun): 206 c.p.m. | RI (c.p.m.) (Fos): 232 c.p.m.

B4: MB20 protein (function unknown, 2-10F) (other, mouse, UniProt Q794H2 1-544, looked up)
chain: MAEADPKMVTEPGAHGVAEEAMASTACDSGDESDSNSSSSTNSCSSSGSSSSGSSSSSSSSSSSSSSSSSSSSGSSGSSSNGSHLNRKKRVPEPSRRAQRRPSGKLFLDKLPQAVRNRVQALRNIQNECDKVDTLFLRAIHDLERKYAELNKPLYDKRFQIINAEYEPTEEECEWNSEEEFSGDEEMQDDTPNEMPPLEGEEEEESCNEKAEVKEEGTHVPEEVPEAKVEEEEAPKETPEVKTEEKDIPKEGAEEKAEEQESSKEIPEVKGEEKADSTDCIDIAPEEKEDVKEVTQANTENKDQPTEEFTPRAPAREAQKRVPETRPEEGVNIKRARKGKPKKEDPKGIPDYWLTVLKNVDKLGPMIQKCDEPILKFLSDVSLKFSNPGQPIGYTFEFHFLPNPYFRNELLMKTYIIRSKPDHYDPFFAWGWEIEECKGCKIDWRRGKDVTVTTTRSRPGITGEIEVQPRVVPNASFFNFFSPPEIPLIGKLEPREDAILDEDFEIGQILHDNVILKSIYYFTGEINDPYYHDFRDYGNRKYYK
modifications: 35S-methionine label or biotinylated lysine, by its role in the assay
notes: also called NAP1-like protein L3
RI (cpm) (2-1G): 72 cpm | RI (cpm) (2-1E): 60 cpm | RI (cpm) [2]: 736 cpm | RI (cpm) (2-1F): 60 cpm | RI (cpm) [3]: 87 cpm | RI (cpm) (2-10H): 98 cpm | RI (cpm) [4]: 168 cpm | RI (cpm) (2-10G): 67 cpm

B5: Caspase 6 (1-9E) (enzyme, mouse, UniProt O08738 1-276, looked up)
chain: MTETDGFYKSREVFDPAEQYKMDHKRRGVALIFNHERFFWHLTLPERRGTNADRDNLTRRFSDLGFEVKCFNDLRAEELLLKIHEVSTSSHIDADCFICVFLSHGEGNHVYAYDAKIEIQTLTGLFKGDKCQSLVGKPKIFIIQACRGSQHDVPVVPLDMVDHQTDKLDNVTQVDAASVYTLPAGADFLMCYSVAEGYYSHRETVNGSWYIQDLCEMLARYGSSLEFTELLTLVNRKVSQRRVDFCKDPDAIGKKQVPCFASMLTKKLHFCPKPSK
modifications: 35S-methionine label or biotinylated lysine, by its role in the assay
RI (cpm) (1-9F): 32 cpm | RI (cpm) (1-9H): 37 cpm | RI (cpm) [5]: 225 cpm | RI (cpm) (1-9G): 36 cpm
